Data from patent US20210261648A1 (published 2021).
Positions count from the first letter of the chain named. Names and notes keep the numbering of the source.

T1: FcγRIIb extracellular domain with C-terminal His tag (human, UniProt P31994 43-217)
T1 construct: extracellular domain; For crystals it was expressed with kifunensine and trimmed with Endo F1; also called FcgRIIb; FcγRIIb extracellular region
T1 sequence (looked up): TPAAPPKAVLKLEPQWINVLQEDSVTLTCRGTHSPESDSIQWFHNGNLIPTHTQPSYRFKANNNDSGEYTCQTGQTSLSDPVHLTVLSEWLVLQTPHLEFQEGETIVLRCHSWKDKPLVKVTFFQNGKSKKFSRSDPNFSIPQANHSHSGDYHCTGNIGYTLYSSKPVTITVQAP

T2: FcγRIIa type H extracellular domain with C-terminal His tag (human, UniProt P12318 34-217)
T2 construct: extracellular domain; also called FcgRIIaH; FcγRIIa H
T2 sequence (looked up): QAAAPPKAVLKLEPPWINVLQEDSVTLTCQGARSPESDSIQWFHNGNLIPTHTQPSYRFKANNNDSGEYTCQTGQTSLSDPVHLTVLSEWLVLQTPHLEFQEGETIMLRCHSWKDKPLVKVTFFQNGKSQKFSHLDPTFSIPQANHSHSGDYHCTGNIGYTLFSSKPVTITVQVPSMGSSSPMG

T3: FcγRIIb extracellular domain with C-terminal His tag (human, UniProt P31994 43-217)
T3 construct: extracellular domain; also called FcgRIIb
T3 sequence (looked up): T1 sequence (looked up)

B1: IL6R-BP459/IL6R-L (antibody, human IgG1, kappa, name in EU numbering)
heavy: QVQLQESGPGLVKPSETLSLTCAVSGHSISHDHAWSWVRQPPGEGLEWIGFISYSGITNYNPSLQGRVTISRDNSKNTLYLQMNSLRAEDTAVYYCARSLARTTAMDYWGEGTLVTVSSASTKGPSVFPLAPSSKSTSGGTAALGCLVKDYFPEPVTVSWNSGALTSGVHTFPAVLQSSGLYSLSSVVTVPSSSLGTQTYICNVNHKPSNTKVDKKVEPKSCDKTHTCPPCPAPDLLGDDSVFLFPPKPKDTLMISRTPEVTCVVVDVAEEDGEVKFNWYVDGVEVHNAKTKPREEQYNSTYRVVSVLTVLHQDWLNGKEYKCKVSNKALPRPIEKTISKAKGQPREPQVYTLPPSRDELTKNQVSLTCLVKGFYPSDIAVEWESNGQPENNYKTTPRVLDSDGSFFLYSKLTVDKSRWQQGNVFSCSVMHEALHNHYTQESLSLSP
light: not shown
B2: IL6R-BP466/IL6R-L (antibody, human IgG1, kappa)
heavy: B1 heavy with A269S, E270D, Y298D, E335R, R398P
light: not shown
B3: IL6R-BP500/IL6R-L (antibody, human IgG1, kappa)
heavy: B1 heavy with D235E, V266I, Y298D, R332A, R398P
light: not shown
B4: variant resulting from adding V264I to IL6R-BP267/IL6R-L (antibody, human IgG1, kappa)
heavy: B1 heavy with V266I, A269S, R332A, R398P
light: not shown
B5: IL6R-BP455/IL6R-L (antibody, human IgG1, kappa, name in EU numbering)
heavy: B1 heavy with R398L
light: not shown
B6: variant resulting from adding S267A to IL6R-BP267/IL6R-L (antibody, human IgG1, kappa)
heavy: B1 heavy with R332A, R398P
light: not shown
B7: IL6R-BP465/IL6R-L (antibody, human IgG1, kappa)
heavy: B1 heavy with A269S, E270D, Y298D, E335K, R398P
light: not shown
B8: variant resulting from adding E269D to IL6R-BP267/IL6R-L (antibody, human IgG1, kappa)
heavy: B1 heavy with A269S, E271D, R332A, R398P
light: not shown
B9: variant resulting from adding V266M to IL6R-BP267/IL6R-L (antibody, human IgG1, kappa)
heavy: B1 heavy with V268M, A269S, R332A, R398P
light: not shown
B10: IL6R-BP464/IL6R-L (antibody, human IgG1, kappa, name in EU numbering)
heavy: B1 heavy with R398Y
light: not shown
B11: IL6R-BP544/IL6R-L (antibody, human IgG1, kappa)
heavy: B1 heavy with A269S, E270D, Y298D, R357Q, R398P
light: not shown
B12: variant resulting from adding S267G to IL6R-BP267/IL6R-L (antibody, human IgG1, kappa)
heavy: B1 heavy with A269G, R332A, R398P
light: not shown
B13: IL6R-BP450/IL6R-L (antibody, human IgG1, kappa, name in EU numbering)
heavy: B1 heavy with R398F
light: not shown
B14: IL6R-BP470/IL6R-L (antibody, human IgG1, kappa)
heavy: B1 heavy with A269S, E270D, Y298D, E335T, R398P
light: not shown
B15: IL6R-BP541/IL6R-L (antibody, human IgG1, kappa)
heavy: B1 heavy with A269S, E270D, K276Q, Y298D, R398P
light: not shown
B16: IL6R-BP545/IL6R-L (antibody, human IgG1, kappa)
heavy: B1 heavy with A269S, E270D, Y298D, D358E, R398P
light: not shown
B17: IL6R-BP448/IL6R-L (antibody, human IgG1, kappa, name in EU numbering)
heavy: B1 heavy with R398D
light: not shown
B18: IL6R-BP449/IL6R-L (antibody, human IgG1, kappa, name in EU numbering)
heavy: B1 heavy with R398E
light: not shown
B19: IL6R-BP546/IL6R-L (antibody, human IgG1, kappa)
heavy: B1 heavy with A269S, E270D, Y298D, L360M, R398P
light: not shown
B20: variant resulting from adding V266F to IL6R-BP267/IL6R-L (antibody, human IgG1, kappa)
heavy: B1 heavy with V268F, A269S, R332A, R398P
light: not shown
B21: IL6R-BP454/IL6R-L (antibody, human IgG1, kappa, name in EU numbering)
heavy: B1 heavy with R398K
light: not shown
B22: IL6R-BP493/IL6R-L (antibody, human IgG1, kappa)
heavy: B1 heavy with D235E, D239G, V266I, Y298D, R332A, R398P
light: not shown
B23: IL6R-BP404/IL6R-L (antibody, human IgG1, kappa)
heavy: B1 heavy with L236Y, A269S, Y298D, R398P
light: not shown
B24: variant resulting from adding S267E to IL6R-BP267/IL6R-L (antibody, human IgG1, kappa)
heavy: B1 heavy with A269E, R332A, R398P
light: not shown
B25: IL6R-BP391/IL6R-L (antibody, human IgG1, kappa)
heavy: B1 heavy with A269S, E270D, Y298D, I334T, R398P
light: not shown
B26: IL6R-BP458/IL6R-L (antibody, human IgG1, kappa, name in EU numbering)
heavy: B1 heavy with R398Q
light: not shown
B27: IL6R-BP559/IL6R-L (antibody, human IgG1, kappa)
heavy: B1 heavy with D235E, D239G, V266I, E274D, Y298D, R332A, R398P
light: not shown
B28: IL6R-BP456/IL6R-L (antibody, human IgG1, kappa, name in EU numbering)
heavy: B1 heavy with R398M
light: not shown
B29: IL6R-BP453/IL6R-L (antibody)
heavy: B1 heavy with R398I
light: not shown
notes: Printed 'P3961'
B30: IL6R-BP492/IL6R-L (antibody, human IgG1, kappa)
heavy: B1 heavy with D235E, D239G, V266I, R332A, R398P
light: not shown
B31: IL6R-BP194/IL6R-L (antibody, human IgG1, kappa)
heavy: B1 heavy with L236Y, A269S, E270D, K328A, R332K, R398P
light: not shown
B32: IL6R-BP185/IL6R-L (antibody, human IgG1, kappa)
heavy: B1 heavy with L236Y, A269S, E270H, K328A, R332K, R398P
light: not shown
B33: IL6R-BP200/IL6R-L (antibody, human IgG1, kappa)
heavy: B1 heavy with L236Y, A269S, E270H, K328D, R398P
light: not shown
B34: IL6R-BP197/IL6R-L (antibody, human IgG1, kappa)
heavy: B1 heavy with L236Y, A269S, E270D, Y298D, K328D, R332K, R398P
light: not shown
B35: IL6R-BP201/IL6R-L (antibody, human IgG1, kappa)
heavy: B1 heavy with A269S, E270H, R398P
light: not shown
B36: IL6R-BP196/IL6R-L (antibody, human IgG1, kappa)
heavy: B1 heavy with D235E, L236Y, D239G, A269S, E270D, K328A, R332K, R398P
light: not shown
B37: IL6R-BP202/IL6R-L (antibody, human IgG1, kappa)
heavy: B1 heavy with D235E, A269S, E270H, K328A, R398P
light: not shown
B38: IL6R-BP198/IL6R-L (antibody, human IgG1, kappa)
heavy: B1 heavy with L236Y, D239G, A269S, E270D, K328A, R332K, R398P
light: not shown
B39: IL6R-BP214/IL6R-L (antibody, human IgG1, kappa)
heavy: B1 heavy with L236Y, A269S, E270H, G273P, Y298D, K328D, R332K, R398P
light: not shown
B40: IL6R-BP210/IL6R-L (antibody, human IgG1, kappa)
heavy: B1 heavy with D235E, A269S, E270D, R398P
light: not shown
B41: IL6R-BP212/IL6R-L (antibody, human IgG1, kappa)
heavy: B1 heavy with D239G, A269S, E270D, Y298D, R398P
light: not shown

The binders below were run against T1, FcγRIIb extracellular domain with … (assay: SPR (Biacore)).

Row | Binder | binding result | binding relative to IL6R-B3/IL6R-L [times] | fold increase of binding against IL6R-BP264/IL6R-L [fold]
1 | B1 | binds |  | 
2 | B2 | binds |  | 
3 | B3 |  | ≥ 100 | 
4 | B4 | binds |  | 
5 | B5 | binds |  | 
6 | B6 | binds |  | 
7 | B7 | binds |  | 
8 | B8 | binds |  | 
9 | B9 | binds |  | 
10 | B10 | binds |  | 
11 | B11 | binds |  | 
12 | B12 | binds |  | 
13 | B13 | binds |  | 
14 | B14 | binds |  | 
15 | B15 | binds |  | 
16 | B16 | binds |  | 
17 | B17 | binds |  | 
18 | B18 | binds |  | 
19 | B19 | binds |  | 
20 | B20 | binds |  | 
21 | B21 | binds |  | 
22 | B22 |  | ≥ 100 | 
23 | B23 |  |  | 1.1
24 | B24 | binds |  | 
25 | B25 | binds |  | 
26 | B26 | binds |  | 
27 | B27 |  | ≥ 100 | 
28 | B28 | binds |  | 
29 | B29 | binds |  | 
30 | B30 |  | ≥ 100 | 

These binders were tested against T4, FcγRIa extracellular domain with C-terminal His tag (human, UniProt P12314 16-292) (assay: SPR, captured antibody, FcgR analyte).
T4 construct: also called FcgRIa
T4 sequence (P12314 16-292): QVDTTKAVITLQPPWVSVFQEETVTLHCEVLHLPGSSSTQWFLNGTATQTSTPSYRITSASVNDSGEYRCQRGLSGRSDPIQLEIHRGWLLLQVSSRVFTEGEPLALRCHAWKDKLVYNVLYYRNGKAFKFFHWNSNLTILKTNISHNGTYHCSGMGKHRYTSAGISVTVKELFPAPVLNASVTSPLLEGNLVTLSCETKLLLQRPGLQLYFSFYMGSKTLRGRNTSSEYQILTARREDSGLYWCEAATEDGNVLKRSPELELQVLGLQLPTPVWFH
Procedure: (§1) Relative binding activities were calculated for the results of analyzing interactions with the respective FcγRs according to the following method.

Row | Binder | relative binding activity
31 | B31 | 69 relative (IL6R-BF648/IL6R-L = 100)
32 | B32 | 47 relative (IL6R-BF648/IL6R-L = 100)
33 | B33 | 60 relative (IL6R-BF648/IL6R-L = 100)
34 | B34 | 71 relative (IL6R-BF648/IL6R-L = 100)
35 | B35 | 57 relative (IL6R-BF648/IL6R-L = 100)
36 | B36 | 89 relative (IL6R-BF648/IL6R-L = 100)
37 | B37 | 43 relative (IL6R-BF648/IL6R-L = 100)
38 | B38 | 104 relative (IL6R-BF648/IL6R-L = 100)
39 | B39 | 36 relative (IL6R-BF648/IL6R-L = 100)
40 | B40 | 57 relative (IL6R-BF648/IL6R-L = 100)
41 | B41 | 117 relative (IL6R-BF648/IL6R-L = 100)

Each binder was assayed against T2, FcγRIIa type H extracellular domain … (assay: SPR, captured antibody, FcgR analyte).
Procedure: as §1

Row | Binder | relative binding activity
42 | B31 | 395 relative (IL6R-BF648/IL6R-L = 100)
43 | B32 | 446 relative (IL6R-BF648/IL6R-L = 100)
44 | B33 | 517 relative (IL6R-BF648/IL6R-L = 100)
45 | B34 | 294 relative (IL6R-BF648/IL6R-L = 100)
46 | B35 | 359 relative (IL6R-BF648/IL6R-L = 100)
47 | B36 | 195 relative (IL6R-BF648/IL6R-L = 100)
48 | B37 | 285 relative (IL6R-BF648/IL6R-L = 100)
49 | B38 | 188 relative (IL6R-BF648/IL6R-L = 100)
50 | B39 | 285 relative (IL6R-BF648/IL6R-L = 100)
51 | B40 | 279 relative (IL6R-BF648/IL6R-L = 100)
52 | B41 | 135 relative (IL6R-BF648/IL6R-L = 100)

Each binder was assayed against T3, FcγRIIb extracellular domain with … (assay: SPR, captured antibody, FcgR analyte).
Procedure: as §1

Row | Binder | relative binding activity
53 | B31 | 178 relative (IL6R-BF648/IL6R-L = 100)
54 | B32 | 179 relative (IL6R-BF648/IL6R-L = 100)
55 | B33 | 188 relative (IL6R-BF648/IL6R-L = 100)
56 | B34 | 179 relative (IL6R-BF648/IL6R-L = 100)
57 | B35 | 186 relative (IL6R-BF648/IL6R-L = 100)
58 | B36 | 157 relative (IL6R-BF648/IL6R-L = 100)
59 | B37 | 185 relative (IL6R-BF648/IL6R-L = 100)
60 | B38 | 164 relative (IL6R-BF648/IL6R-L = 100)
61 | B39 | 174 relative (IL6R-BF648/IL6R-L = 100)
62 | B40 | 187 relative (IL6R-BF648/IL6R-L = 100)
63 | B41 | 173 relative (IL6R-BF648/IL6R-L = 100)
